Test results as given in US20060035823A1 (published 2006).

Legend:
[1] = target: GAL4 BD/TRAF-6 fusion (pGBT9/TRAF-6) (UniProt P04386 1-147; Q9Y4K3 1-522, limits assumed); test: yeast two-hybrid (β-gal, growth without His)
[2] = target: GAL4 BD/TRAF-5 fusion (pGBT9/TRAF-5) (UniProt P04386 1-147; O00463 1-557, limits assumed); test: yeast two-hybrid (β-gal, growth without His)
[3] = target: GAL4 BD/TRAF-2 fusion (pGBT9/TRAF-2) (UniProt P04386 1-147; Q12933 1-501, limits assumed); test: yeast two-hybrid (β-gal, growth without His)
[4] = target: GAL4 BD/TRAF-4 fusion (pGBT9/TRAF-4) (UniProt P04386 1-147; Q9BUZ4 1-470, limits assumed); test: yeast two-hybrid (β-gal, growth without His)
[5] = target: T1, GAL4 DNA-binding domain (BD)/full-length TRAF-3 fusion construct (pGBT9/TRAF-3) (human, UniProt P04386 1-147; Q13114 1-568); test: yeast two-hybrid
T1 construct: Yeast two-hybrid fusion expressed in yeast Y190; BD is put first as in the vector; also called BD/TRAF-3; bait construct

[6] = target: T2, HA-tagged β-galactosidase (pCGN/LacZ) (UniProt P00722 1-1024 = β-galactosidase); test: co-immunoprecipitation from 293T lysates, anti-HA IP, anti-X-press blot
T2 construct: Specificity control, over-expressed in 293T cells; also called HA-LacZ; RA-LacZ; not shown: N-terminal hemagglutinin (HA) tag of vector pCGN
Method: Samples were separated by 10% SDS PAGE and transferred to Immobilon-P PVDF membranes (Millipore Corporation, Bedford, Mass.). Membranes were washed with 1× Tris Buffered Saline (TBS) containing 50 mM Tris pH 7.5 (Fisher Scientific) and 150 mM sodium chloride (Fisher Scientific), and then blocked in 1% Blocking Reagent (Roche Molecular Biochemicals) dissolved in 1×TBS.
(§1) Membranes were probed with anti-Xpress, diluted 1:5000 in 0.5% Blocking Reagent, or anti-HA (12CA5) at 0.4 μg/ml (Roche Molecular Biochemicals) in 0.5% Blocking Reagent. Membranes were incubated for 1 hour, then washed twice with TBS containing 0.1% Tween-20 (Sigma Chemical Co.) (1× TBST) and twice with 0.5% Blocking Reagent. Membranes were incubated with anti-mouse IgG-Peroxidase (Roche Molecular Biochemicals) at 1:2500 in 0.5% Blocking Reagent for 60 minutes at room temperature, then washed 4 times in 1× TBST. Proteins were detected with the BM Chemiluminescence Blotting Substrate (POD) (Roche Molecular Biochemicals). Following detection, membranes were stripped of antibodies by incubation with stripping solution containing 62.5 mM Tris pH 6.7, 2% SDS, and 50 mM 2-mercaptoethanol (Fisher Scientific) for 30 minutes at 50° C. The membranes were rinsed with distilled water and then with 1×TBS. The stripped membranes were blocked and reprobed with antibodies as described above.

[7] = target: T3, His-tagged TRAF-2 (pEBVHis/TRAF-2) (UniProt Q12933 1-501); test: co-immunoprecipitation from 293T lysates, anti-X-press IP, anti-HA blot
T3 construct: Specificity control, over-expressed in 293T cells
T3 sequence (looked up): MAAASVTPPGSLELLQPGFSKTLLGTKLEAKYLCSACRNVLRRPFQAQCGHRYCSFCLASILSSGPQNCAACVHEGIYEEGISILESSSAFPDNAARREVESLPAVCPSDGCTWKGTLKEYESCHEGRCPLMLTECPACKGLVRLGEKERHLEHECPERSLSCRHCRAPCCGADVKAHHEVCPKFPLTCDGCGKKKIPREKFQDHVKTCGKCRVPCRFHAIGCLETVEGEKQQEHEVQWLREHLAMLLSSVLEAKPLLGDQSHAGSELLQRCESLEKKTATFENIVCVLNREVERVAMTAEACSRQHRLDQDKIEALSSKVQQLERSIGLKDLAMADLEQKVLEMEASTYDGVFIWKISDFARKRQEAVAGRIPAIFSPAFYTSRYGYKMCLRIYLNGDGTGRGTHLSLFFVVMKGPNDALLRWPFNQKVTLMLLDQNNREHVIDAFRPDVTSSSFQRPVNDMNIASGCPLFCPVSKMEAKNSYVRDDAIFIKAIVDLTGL
Method: Membranes were washed with 1× Tris Buffered Saline (TBS) containing 50 mM Tris pH 7.5 (Fisher Scientific) and 150 mM sodium chloride (Fisher Scientific), and then blocked in 1% Blocking Reagent (Roche Molecular Biochemicals) dissolved in 1×TBS.
as §1

[8] = target: T4, GAL4 BD fusion of TRAF-3 aa 110-265 (Zn fingers only), in pGBT9 (human, UniProt P04386 1-147; Q13114 110-265); test: yeast two-hybrid
T4 construct: The range is printed without its hyphen

[9] = target: GAL4 BD fusion of TRAF-3 aa 267-343 (coiled-coil domain only), in pGBT9 (human, UniProt P04386 1-147; Q13114 267-343); test: yeast two-hybrid

T2 sequence (P00722 whole entry): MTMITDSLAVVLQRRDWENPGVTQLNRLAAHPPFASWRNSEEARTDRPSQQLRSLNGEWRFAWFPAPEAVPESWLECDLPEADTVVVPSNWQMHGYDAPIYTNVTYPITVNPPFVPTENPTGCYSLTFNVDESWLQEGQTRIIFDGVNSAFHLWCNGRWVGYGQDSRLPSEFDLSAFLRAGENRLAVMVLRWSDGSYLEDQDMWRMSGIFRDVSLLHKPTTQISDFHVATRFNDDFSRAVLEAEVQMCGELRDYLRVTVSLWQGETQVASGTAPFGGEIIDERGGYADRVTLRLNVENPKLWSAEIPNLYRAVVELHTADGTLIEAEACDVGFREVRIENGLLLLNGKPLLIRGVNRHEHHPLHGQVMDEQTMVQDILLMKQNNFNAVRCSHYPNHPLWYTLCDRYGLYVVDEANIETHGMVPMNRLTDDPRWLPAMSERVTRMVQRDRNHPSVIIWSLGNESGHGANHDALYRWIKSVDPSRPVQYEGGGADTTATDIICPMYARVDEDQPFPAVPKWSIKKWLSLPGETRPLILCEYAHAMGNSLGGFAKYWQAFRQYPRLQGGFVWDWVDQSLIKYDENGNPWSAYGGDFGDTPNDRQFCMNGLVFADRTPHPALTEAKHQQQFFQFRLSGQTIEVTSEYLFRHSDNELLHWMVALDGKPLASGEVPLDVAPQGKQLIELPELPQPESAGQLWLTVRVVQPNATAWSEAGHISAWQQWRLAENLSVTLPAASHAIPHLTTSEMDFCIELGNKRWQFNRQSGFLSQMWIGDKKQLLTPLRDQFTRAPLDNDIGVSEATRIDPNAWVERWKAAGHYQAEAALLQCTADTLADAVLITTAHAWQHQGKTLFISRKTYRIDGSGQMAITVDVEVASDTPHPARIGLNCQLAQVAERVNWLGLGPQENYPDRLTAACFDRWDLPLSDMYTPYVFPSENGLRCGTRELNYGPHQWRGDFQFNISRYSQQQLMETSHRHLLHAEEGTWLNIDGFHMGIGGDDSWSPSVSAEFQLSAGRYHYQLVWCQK

B1: GAL4 AD fusion of p62 nucleoporin aa 270-522 (pACT/p62(270-522)) (other, UniProt P37198 270-522, looked up, not shown: large carriers)
chain: TTSTAATATATTTSSSSTTGFALNLKPLAPAGIPSNTAAAVTAPPGPGAAAGAAASSAMTYAQLESLINKWSLELEDQERHFLQQATQVNAWDRTLIENGEKITSLHREVEKVKLDQKRLDQELDFILSQQKELEDLLSPLEELVKEQSGTIYLQHADEEREKTYKLAENIDAQLKRMAQDLKDIIEHLNTSGAPADTSDPLQQICKILNAHMDSLQWIDQNSALLQRKVEEVTKVCEGRRKEQERSFRITFD
**Q.** Does B1 bind [1]?
**A.** no binding

**Q.** Does B1 bind [2]?
**A.** no binding

**Q.** Does B1 bind [3]?
**A.** no binding

**Q.** Does B1 bind [4]?
**A.** no binding

B2: GAL4 AD fusion of p62 nucleoporin aa 302-391 (deletion mutant in pGAD424) (other, not shown: large carriers; small tags and cut ends)
chain: IPSNTAAAVTAPPGPGAAAGAAASSAMTYAQLESLINKWSLELEDQERHFLQQATQVNAWDRTLIENGEKITSLHREVEKVKLDQKRLDQ
**Q.** Does B2 bind [5]?
**A.** no binding

B3: His-tagged TRAF-3 (pEBVHis/TRAF-3), amino-terminal poly-histidine tag and X-press epitope (other, human, UniProt Q13114 1-568, looked up, not shown: small tags and cut ends)
chain: MESSKKMDSPGALQTNPPLKLHTDRSAGTPVFVPEQGGYKEKFVKTVEDKYKCEKCHLVLCSPKQTECGHRFCESCMAALLSSSSPKCTACQESIVKDKVFKDNCCKREILALQIYCRNESRGCAEQLMLGHLLVHLKNDCHFEELPCVRPDCKEKVLRKDLRDHVEKACKYREATCSHCKSQVPMIALQKHEDTDCPCVVVSCPHKCSVQTLLRSELSAHLSECVNAPSTCSFKRYGCVFQGTNQQIKAHEASSAVQHVNLLKEWSNSLEKKVSLLQNESVEKNKSIQSLHNQICSFEIEIERQKEMLRNNESKILHLQRVIDSQAEKLKELDKEIRPFRQNWEEADSMKSSVESLQNRVTELESVDKSAGQVARNTGLLESQLSRHDQMLSVHDIRLADMDLRFQVLETASYNGVLIWKIRDYKRRKQEAVMGKTLSLYSQPFYTGYFGYKMCARVYLNGDGMGKGTHLSLFFVIMRGEYDALLPWPFKQKVTLMLMDQGSSRRHLGDAFKPDPNSSSFKKPTGEMNIASGCPVFVAQTVLENGTYIKDDTIFIKVIVDTSDLPDP
notes: Over-expressed in 293T cells; tested in cell lysates
**Q.** Does B3 bind [6]?
**A.** no binding

B4: HA-tagged p62(336-522) (pCGN/p62(336-522)), N-terminal hemagglutinin tag (other)
chain: LINKWSLELEDQERHFLQQATQVNAWDRTLIENGEKITSLHREVEKVKLDQKRLDQELDFILSQQKELEDLLSPLEELVKEQRATIYLQHADEERQKTYKLAENIDAQLKRMAQDLKDIIEHLNTSGAPADTSDPLQQICKILNAHMDSLQWIDQNSALLQRKVEEVTKVCVGRRKEQERSFRITFD
notes: not shown: N-terminal hemagglutinin (HA) tag of vector pCGN
**Q.** Does B4 bind [7]?
**A.** no binding

B5: GAL4 AD fusion of p62 nucleoporin aa 336-522 (pACT/p62(336-522)) (other, not shown: large carriers)
chain: B4 chain
**Q.** Which results are given for B5?
**A.** binding result [8]: no binding; binding result [9]: no binding
